Sequences and labels used below:
B1: 2995-A01 (other)
VH: EVQLLESGGGLVQPGGSLRLSCAASGFTFSSYWMHWVRQAPGKGLEWVAAISSSGTYTYYADSVKGRFTISRDNSKNTLYLQMNSLRAEDTAVYYCAKDNFILLNSWFDYWGQGTLVTVSS
light: QPVLHQPPAMSSALGTTIRLTCTLRNDHDIGVYSVYWYQQRPGHPPRFLLRYFSQSDKSQGPQVPPRFSGSKDVARNRGYLSISELQPEDEAMYYCAMGARSSVTHVFGSGTQLTVLSQPKATPSVTLFPPSSEELQANKATLVCLMNDFYPGILTVTWKADGTPITQGVEMTTPSKQSNNKYAASSYLSLTPEQWRSRRSYSCQVMHEGSTVEKTVAPAECS
B2: 2995-A09 (other)
VH: B1 VH with A50G, S53Y, S54G
light: B1 light
B3: 2995-B01 (other)
VH: B1 VH with S31D, W33A, A50L, S54G, T56R, T58K
light: B1 light
B4: 2995-G11 (other)
VH: B1 VH with A49S, S54G, T56G, T58I
surrogate light: B1 light
notes: copies: 1 + 1
B5: 2995-D07 (other)
VH: B1 VH with S31N, S53N, S54G, T56G, T58K
surrogate light: B1 light
notes: copies: 1 + 1
B6: 2995-A05 (other)
VH: B1 VH with S31N, S53N, S54G, G55S, T56S
light: B1 light
B7: 2995-C05 (other)
VH: B1 VH with S31D, S54G, G55S, T56S
surrogate light: B1 light
notes: copies: 1 + 1
B8: 2995-C10 (other)
VH: B1 VH with A50G, S53G, S54G, T56A
light: B1 light
notes: copies: 1 + 1
B9: 2995-H03 (other)
VH: B1 VH with S31D, A50V, S53G, S54G, T56A, T58K
light: B1 light
B10: 2995-A08 (other)
VH: B1 VH with A50G, S53N, S54G, T56S, Y57I, T58I
light: B1 light
B11: 2995-H11 (other)
VH: B1 VH with S31D, A49S, T56G, T58K
light: B1 light
B12: 2995-B02 (other)
VH: B1 VH with S31D, A50V, S54N, T56R
light: B1 light
notes: copies: 1 + 1
B13: 2995-H07 (other)
VH: B1 VH with S31D, H35N, A50L, S53N, S54N, T56S
light: B1 light
B14: 2995-D03 (other)
VH: B1 VH with W33A, A50L, S53N, S54G, G55S, T56G, T58K
light: B1 light
notes: copies: 1 + 1
B15: 2995-B06 (other)
VH: B1 VH with S31N, W33G, A50L, S54G, T56A
light: B1 light
B16: 2995-B04 (other)
VH: B1 VH with S31N, A50L, S53N, S54N
light: B1 light
B17: 2995-B10 (other)
VH: B1 VH with S53A, S54G, G55S, T56G, T58I
surrogate light: B1 light
notes: copies: 1 + 1
B18: 2995-A07 (other)
VH: B1 VH with A50G, S54G, T56A
light: B1 light
B19: 2995-F08 (other)
VH: B1 VH with A49S, A50G, S53N, S54N, T56R, T58K
light: B1 light
B20: 2995-G10 (other)
VH: B1 VH with S31D, H35N, A50N, S53N, S54G, T58I
light: B1 light
B21: 2995-C02 (other)
VH: B1 VH with S31N, H35N, A50N, S54G, T56S
surrogate light: B1 light
notes: copies: 1 + 1
B22: 2995-D11 (other)
VH: B1 VH with A50V, S53N, S54N, T56R, T58K
surrogate light: B1 light
notes: copies: 1 + 1
B23: 2995-A12 (other)
VH: B1 VH with S31D, H35N, A50N, S53G, S54G, T56G, T58I
surrogate light: B1 light
B24: 2995-E08 (other)
VH: B1 VH with A50G, S54G, T56S, T58K
light: B1 light
B25: 2995-D08 (other)
VH: B1 VH with S31D, S53W, S54G, T56S
light: B1 light
B26: 2995-C03 (other)
VH: B1 VH with A50G, S53G, S54G, T56R
surrogate light: B1 light
notes: copies: 1 + 1
B27: 2995-H09 (other)
VH: B1 VH with S31N, A50S, S53N, S54G, T56R, T58I
light: B1 light
B28: 2995-E12 (other)
VH: B1 VH with S31N, A50L, S54G, G55S, T58I, Y59S
light: B1 light
B29: 2995-D01 (other)
VH: B1 VH with H35S, A50L, S53N, S54G, T56S, Y57I, T58K
light: B1 light
B30: 2995-C07 (other)
VH: B1 VH with S31N, A50L, S54G, G55S, T58I, Y59S, F108L
light: B1 light
B31: 2995-A06 (other)
VH: B1 VH with A50G, S53D, S54G, T56A
surrogate light: B1 light
notes: copies: 1 + 1
B32: 2995-A02 (other)
VH: B1 VH with H35N, A50L, S53N, S54G, T56G, Y57I, T58K
light: B1 light
notes: copies: 1 + 1

Positions count from the first letter of the chain named.

What is called EC50 is the concentration at which the effect is half-maximal.

This test addresses T1, human ErbB3-Fc (R&D Systems) (human, UniProt P21860 20-643).
T1 construct: Bought protein; also called wild-type ErbB3-Fc fusion; immobilized ErbB3; not shown: Fc part of the bought fusion protein; not described
As to the kind of experiment: ELISA on ErbB3-Fc, soluble monovalent Sab (Example 42). In general terms: ELISA stands for enzyme-linked immunosorbent assay.
With B1, the EC50 came out at 0.071 nM.

In turn, B2 yielded an EC50 of 0.045 nM.

B3: a half-maximal effect (EC50) was put at 0.046 nM.

B4 returned an EC50 of 0.029 nM.

In the case of B5, the EC50 was 0.033 nM.

As to B6, the midpoint of the response, the EC50, lay at 0.022 nM.

B7 displayed an EC50 of 0.015 nM.

The molecule B8 came in with an EC50 of 0.02 nM.

For the molecule B9, the EC50 amounted to 0.026 nM.

B10: the EC50 was 0.02 nM.

In turn, B11 yielded an EC50 of 0.063 nM.

As to B12, the response was half-maximal at 0.016 nM (EC50).

On to B13, for which the EC50 is 0.025 nM.

Molecule B14 gave an EC50 of 0.015 nM.

Molecule B15 returned an EC50 of 0.01 nM.

For the molecule B16, the EC50 is 0.021 nM.

B17: the EC50 was 0.032 nM.

B18 had an EC50 of 0.022 nM.

As for B19, the response was half-maximal at 0.059 nM (EC50).

Turning to B20, the EC50 is 0.022 nM.

Consider B21, for which the EC50 was determined as 0.028 nM.

Molecule B22 had an EC50 of 0.027 nM.

For B23, a half-maximal response (EC50) required 0.01 nM.

For the molecule B24, a half-maximal response (EC50) required 0.039 nM.

Take B25: the EC50 worked out at 0.052 nM.

The molecule B26 came in with an EC50 of 0.027 nM.

In turn, B27 came in with an EC50 of 0.02 nM.

Molecule B28 returned an EC50 of 0.04 nM.

For B29, the EC50 was 0.038 nM.

B30 yielded a 50% effective concentration (EC50) of 0.056 nM.

As to B31, a half-maximal response (EC50) required 0.032 nM.

As to B32, it took 0.018 nM to reach a half-maximal effect (EC50).

The values are drawn from patent publication US20140308287A1 (SEA LANE BIOTECHNOLOGIES, published 2014).
